Results: article doi:10.1101/2025.09.05.674523 (bioRxiv, 2025)
One block for each molecule: values may come before it.

How the values were obtained:
Assay in all cases: AlphaScreen or HTRF
mEPPIN^L24-K68 (mouse) = mEPPIN^L24-K68 (mouse) (UniProt Q9DA01)
[1] = target: full-length recombinant mouse EPPIN (mEPPIN; L24-T134) (mouse) (UniProt Q9DA01)
[2] = target: full-length recombinant mouse SEMG1 (mSEMG1; Q32-G375) (mouse)
[3] = target: T1, full-length recombinant mouse EPPIN (mEPPIN; L24-T134) (mouse, UniProt Q9DA01 24-134)
T1 sequence (looked up): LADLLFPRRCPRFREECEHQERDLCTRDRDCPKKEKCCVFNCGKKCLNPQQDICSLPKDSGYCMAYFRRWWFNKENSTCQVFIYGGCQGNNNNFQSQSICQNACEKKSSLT

reduction in the specific signal compared to full-length EPPIN (mEPPIN^L24-K68 (mouse)): 75% | EC50 [1]: 23.6 nM
Molecule: full-length recombinant mouse SEMG1 (mSEMG1; Q32-G375) (natural protein)

EC50 [2]: 1 nM
B1: full-length recombinant mouse EPPIN (mEPPIN; L24-T134) (natural protein)
chain: LADLLFPRRCPRFREECEHQERDLCTRDRDCPKKEKCCVFNCGKKCLNPQQDICSLPKDSGYCMAYFRRWWFNKENSTCQVFIYGGCQGNNNNFQSQSICQNACEKKSSLT

EC50 [3]: 8.3 nM
B2: recombinant human SEMG1 (hSEMG1, G26-R281) (domain or fragment, UniProt P04279 26-281, looked up)
chain: GGSKGRLPSEFSQFPHGQKGQHYSGQKGKQQTESKGSFSIQYTYHVDANDHDQSRKSQQYDLNALHKTTKSQRHLGGSQQLLHNKQEGRDHDKSKGHFHRVVIHHKGGKAHRGTQNPSQDQGNSPSGKGISSQYSNTEERLWVHGLSKEQTSVSGAQKGRKQGGSQSSYVLQTEELVANKQQRETKNSHQNKGHYQNVVEVREEHSSKVQTSLCPAHQDKLQHGSKDIFSTQDELLVYNKNQHQTKNLNQDQQHGR
